Here are results for seven molecules from patent publication US20030236190A1.

No end group written: not given here.

Assay [1] addresses T1, Soluble IGF-1R (R&D Systems, Cat. # 391-GR/CF); recombinant human IGF-1R (human), P08069. Description: phage ELISA vs milk.
Assay [2] deals with T2, Insulin receptor prepared according to Bass et al., 1996: soluble human insulin receptor-immunoglobulin heavy chain chimera (human), P06213. Description: phage ELISA vs milk.
For assay [3], the target named is T1, Soluble IGF-1R (R&D Systems, Cat. # …). Description: phage ELISA, vs IR. (In general: An ELISA detects its analyte on a solid surface through an enzyme-linked reagent.)
In assay [4] the target is T2, Insulin receptor prepared according to …. Description: phage ELISA, vs IGF-1R.
Assay [5] has as its target soluble human insulin receptor-immunoglobulin heavy chain chimera (sIR-Fc) (human), P06213. In words: fluorescence polarization competition with FITC-RP9 for sIR-Fc. Particulars: remark: other sources report otherwise. (Fluorescence polarisation rises when a labelled molecule tumbles more slowly, as on binding a larger partner.)
In assay [6] the target is Insulin receptor prepared according to Bass et al., 1996: soluble human insulin receptor-immunoglobulin heavy chain chimera (human) (UniProt P06213). Description: phage ELISA, vs IGF-1R.
Assay [7] has the same target. In words: phage ELISA vs milk.
The target in assay [8] is soluble human insulin mini-receptor (mIR) (human) (UniProt P06213). In words: FP competition vs FITC-RP9, mIR.
For assay [9], the target named is Soluble IGF-1R (UniProt P08069). In words: phage ELISA; ratio over background for IGF-1R divided by that for IR.
The target is the same in assay [10].

B1: 20E2B-2-B11-IGFR (peptide)
peptide: VVTPVNFYRALEALVRGXRLG
modifications: not fully specified; printed as VVTPVNFYRALEALVRG.RLG; X: residue not identified in the source
B1: the Ratio over Background was 10.6 fold in [1] and 1.1 fold in assay [2]. Further, the IGF-1R/IR Comparison in assay [3] turned out to be 9.4. For the same molecule, the IR/IGF-1R Comparison in [4] stood at 0.1.

B2: C1 (peptide)
peptide: CWARPCGDAANFYDWFVQQAS
A word on the IC50: it is the midpoint of a concentration-inhibition curve. Read a low IC50 as higher potency. Take B2: in assay [5], the IC50 turned out to be 52 nM.

B3: B6Hα-1-B5-IR (peptide)
peptide: CCTTEMVVMDARDDPFYHKLSELVTGG
B3 had an IR/IGF-1R Comparison in [6] of 0. Besides, the Ratio over Background in assay [7] was 1 fold.

B4: H2CA-4-E9-IGFR (peptide)
peptide: RGAVAGFHDQFYDWFDRQVSRVHKFG
Regarding B4, the IR/IGF-1R Comparison in assay [6] is 0.3. Moreover, in assay [7], the Ratio over Background came out at 1.9 fold.

B5: H2C (peptide)
peptide: FHENFYDWFVQRVSKK
As for B5, the IC50 in assay [8] was 770 nM. This counts as sub-micromolar.

B6: A6L-0-H3-IR (peptide)
peptide: YRGMLVLGRISGGAGKAASERPARIGQKVSAVNFYDWFV
Regarding B6, the IR/IGF-1R Comparison in assay [6] came out at 0.1. The Ratio over Background in assay [7] turned out to be 2 fold.

B7: 26L-3-G5-IR (peptide)
peptide: AETSAQVGWQRLWSVWPGDHWSTLDPFYHKLSELLRESGA
modifications: not fully specified (residue 27, N-terminus, C-terminus); printed as AETSAQVGWQRLWSVWPGDHWSTLDP9YHKLSELLRESGA
Take B7: the IGF-1R/IR ratio comparison with Soluble IGF-1R [9] was 1.4. In addition, the ratio over background, IGF-1R (ratio over background) with Soluble IGF-1R [10] came out at 2.
